In one assay the target is T1, recombinant human TfR2 (human, UniProt Q9UP52 105-801, limits assumed).
T1 construct: also called hTfR2; transferrin receptor 2
T1 sequence (looked up): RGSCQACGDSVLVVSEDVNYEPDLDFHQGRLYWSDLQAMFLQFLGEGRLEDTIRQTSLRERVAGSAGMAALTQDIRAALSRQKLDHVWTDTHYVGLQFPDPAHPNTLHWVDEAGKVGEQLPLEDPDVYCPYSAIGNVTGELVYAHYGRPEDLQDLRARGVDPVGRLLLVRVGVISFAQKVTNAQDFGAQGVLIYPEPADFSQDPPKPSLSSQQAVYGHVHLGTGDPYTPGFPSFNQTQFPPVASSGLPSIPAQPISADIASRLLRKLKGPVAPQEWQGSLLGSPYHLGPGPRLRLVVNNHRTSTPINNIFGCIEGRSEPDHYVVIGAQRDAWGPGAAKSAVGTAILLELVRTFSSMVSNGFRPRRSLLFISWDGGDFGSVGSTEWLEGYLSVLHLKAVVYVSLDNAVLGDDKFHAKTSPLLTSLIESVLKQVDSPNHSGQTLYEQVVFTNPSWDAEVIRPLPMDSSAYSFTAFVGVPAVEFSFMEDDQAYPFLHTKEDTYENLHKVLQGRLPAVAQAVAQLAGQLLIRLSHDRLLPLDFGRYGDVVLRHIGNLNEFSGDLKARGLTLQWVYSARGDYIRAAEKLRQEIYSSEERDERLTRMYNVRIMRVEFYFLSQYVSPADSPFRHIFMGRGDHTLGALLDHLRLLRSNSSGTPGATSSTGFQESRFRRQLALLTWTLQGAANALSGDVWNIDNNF
Briefly: SPR.

For the next assay, the target named is recombinant mouse TfR1 (mouse, UniProt Q62351 89-763). Briefly: ELISA, plates precoated with recombinant TfR1. The procedure: (§1) Serial dilutions of the Fab were added to plates precoated with recombinant human, cynomolgus monkey, mouse, or rat TfR1. After a short incubation, binding of the Fab was quantified by addition of a fluorescently tagged anti-(H+L) IgG secondary antibody and measurement of fluorescence intensity at 495 nm excitation and 520 nm emission.
Sequence of recombinant mouse TfR1 (Q62351 89-763 limits assumed): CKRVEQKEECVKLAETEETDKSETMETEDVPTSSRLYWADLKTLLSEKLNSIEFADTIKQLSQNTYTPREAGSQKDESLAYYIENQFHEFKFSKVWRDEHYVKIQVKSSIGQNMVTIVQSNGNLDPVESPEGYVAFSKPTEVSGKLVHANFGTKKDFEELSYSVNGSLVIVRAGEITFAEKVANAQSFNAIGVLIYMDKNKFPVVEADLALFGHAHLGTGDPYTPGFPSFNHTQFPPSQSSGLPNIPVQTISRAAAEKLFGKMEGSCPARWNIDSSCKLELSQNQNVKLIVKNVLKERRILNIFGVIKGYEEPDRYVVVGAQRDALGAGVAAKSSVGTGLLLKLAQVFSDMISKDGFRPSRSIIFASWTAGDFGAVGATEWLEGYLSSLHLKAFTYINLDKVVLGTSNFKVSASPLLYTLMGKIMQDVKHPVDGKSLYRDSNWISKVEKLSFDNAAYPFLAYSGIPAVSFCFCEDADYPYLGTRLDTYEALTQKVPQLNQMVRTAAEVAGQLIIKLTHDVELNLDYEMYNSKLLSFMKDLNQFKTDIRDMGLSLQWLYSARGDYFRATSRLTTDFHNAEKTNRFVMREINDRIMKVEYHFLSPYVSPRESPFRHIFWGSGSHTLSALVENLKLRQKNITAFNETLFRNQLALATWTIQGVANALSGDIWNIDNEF

For a further assay, the target named is recombinant rat TfR1 (rat, UniProt Q99376 89-761, limits assumed). Briefly: ELISA, plates precoated with recombinant TfR1. How it is done:
as §1

For the next assay, the target named is T2, recombinant human TfR1 (human, UniProt P02786 89-760).
T2 construct: also called hTfR1; huTfR1
T2 sequence (P02786 89-760 limits assumed): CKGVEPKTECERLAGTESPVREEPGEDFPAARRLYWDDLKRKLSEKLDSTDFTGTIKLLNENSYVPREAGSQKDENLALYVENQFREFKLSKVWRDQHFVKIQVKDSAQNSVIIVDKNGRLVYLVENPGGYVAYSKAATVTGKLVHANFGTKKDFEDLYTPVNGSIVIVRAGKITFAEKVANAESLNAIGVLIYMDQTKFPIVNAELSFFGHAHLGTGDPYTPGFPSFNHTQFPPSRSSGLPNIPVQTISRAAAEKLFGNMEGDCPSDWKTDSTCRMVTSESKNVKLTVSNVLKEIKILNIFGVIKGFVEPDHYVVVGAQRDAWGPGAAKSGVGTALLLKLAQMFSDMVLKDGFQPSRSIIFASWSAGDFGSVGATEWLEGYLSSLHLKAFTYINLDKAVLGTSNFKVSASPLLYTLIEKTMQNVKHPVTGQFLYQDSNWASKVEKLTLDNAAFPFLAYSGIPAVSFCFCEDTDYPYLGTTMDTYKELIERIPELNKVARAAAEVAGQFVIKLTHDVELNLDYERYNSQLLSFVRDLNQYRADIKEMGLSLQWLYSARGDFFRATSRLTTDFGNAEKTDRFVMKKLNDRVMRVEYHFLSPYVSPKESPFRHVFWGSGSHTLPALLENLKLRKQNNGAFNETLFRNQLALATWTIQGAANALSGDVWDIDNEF
Briefly: printed: DMPK oligo conjugate binding to hTfR1.

This is an account of results in patent US20230346967A1 (published 2023).

Sequence of recombinant rat TfR1 (Q99376 89-761 limits assumed): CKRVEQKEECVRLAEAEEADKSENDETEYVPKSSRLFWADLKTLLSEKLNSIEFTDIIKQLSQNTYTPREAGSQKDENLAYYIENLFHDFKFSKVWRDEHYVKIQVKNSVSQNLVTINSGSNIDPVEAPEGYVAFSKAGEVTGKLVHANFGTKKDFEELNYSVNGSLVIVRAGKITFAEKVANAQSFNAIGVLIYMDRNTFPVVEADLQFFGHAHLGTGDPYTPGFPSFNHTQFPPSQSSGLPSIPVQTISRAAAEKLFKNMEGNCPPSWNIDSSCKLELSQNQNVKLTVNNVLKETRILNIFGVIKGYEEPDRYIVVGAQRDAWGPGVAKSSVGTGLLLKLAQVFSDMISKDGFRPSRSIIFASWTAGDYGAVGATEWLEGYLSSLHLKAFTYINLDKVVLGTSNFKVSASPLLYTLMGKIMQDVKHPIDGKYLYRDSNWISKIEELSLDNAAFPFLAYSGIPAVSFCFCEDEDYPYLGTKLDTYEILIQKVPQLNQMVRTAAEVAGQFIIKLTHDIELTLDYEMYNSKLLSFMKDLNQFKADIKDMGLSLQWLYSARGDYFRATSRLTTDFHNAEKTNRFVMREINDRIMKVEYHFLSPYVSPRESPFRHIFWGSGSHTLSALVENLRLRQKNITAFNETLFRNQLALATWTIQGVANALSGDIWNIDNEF

B1: humanized anti-TfR Fab 3M12 VH4/Vκ3 (Fab, V domains shown)
VH: QVQLQESGPGLVKPSQTLSLTCTVTGYSITSGYYWNWIRQPPGKGLEWIGYITFDGANNYNPSLKNRVSISRDTSKNQFSLKLSSVTAEDTATYYCTRSSYDYDVLDYWGQGTTVTVSS
VL: DIQMTQSPSSLSASVGDRVTITCRASQDISNFLNWYQQKPGQPVKLLIYYTSRLHSGVPSRFSGSGSGTDFTLTISSLQPEDFATYYCQQGHTLPYTFGQGTKLEIKR
notes: also called 3M12 (VH4/Vk3); 3M12 VH4/VK3
In the case of B1, the binding result in the assay with recombinant human TfR2, with recombinant mouse TfR1 and in the assay with recombinant rat TfR1 was “no binding” in each case.

B2: humanized anti-TfR Fab 3A4 VH3/Vκ4 conjugated to DMPK-targeting oligonucleotide ASO300 (Fab, V domains shown)
VH: EVQLVQSGSELKKPGASVKVSCTASGFNIKDDYMYWVRQPPGKGLEWIGWIDPENGDTEYASKFQDRVTVTADTSTNTAYMELSSLRSEDTAVYYCTLWLRRGLDYWGQGTLVTVSS
VL: DIVMTQSPLSLPVTPGEPASISCRSSKSLLHSNGYTYLFWFQQRPGQSPRLLIYRMSNLASGVPDRFSGSGSGTDFTLKISRVEAEDVGVYYCMQHLEYPFTFGGGTKVEIKR
modifications: DMPK-targeting oligonucleotide ASO300 conjugated to the Fab; chain and residue not stated for this example
notes: The oligonucleotide may sit on either chain; also called 3A4 (VH3/Vk4) conjugate; DMPK oligo conjugate
For B2, the EC50 with recombinant human TfR1 turned out to be 2.84 nM.
